According to PMC9366794 (ACS Omega, 2022):
Ends that are not written are not given here.

How the values were obtained:
male mice = details: icv, 5 μg, at 4, 6, and 24 h; cited from earlier work
[1] = tested on: wildtype, MC4R KO, and MC3R KO mice; details: significant out to at least 7 days post-administration; cited from earlier work
[2] = target: mouse melanocortin-1 receptor (mouse) (UniProt Q01727)
[3] = target: mouse melanocortin-3 receptor (mouse) (UniProt P33033)
[4] = target: mouse melanocortin-5 receptor (mouse) (UniProt P41149)
MC4R KO mice = MC4R KO mice (intact MC3R); cited from earlier work
[5] = target: mouse melanocortin-4 receptor (mouse) (UniProt P56450)
Sequence of UniProt P56450 (P56450 whole entry): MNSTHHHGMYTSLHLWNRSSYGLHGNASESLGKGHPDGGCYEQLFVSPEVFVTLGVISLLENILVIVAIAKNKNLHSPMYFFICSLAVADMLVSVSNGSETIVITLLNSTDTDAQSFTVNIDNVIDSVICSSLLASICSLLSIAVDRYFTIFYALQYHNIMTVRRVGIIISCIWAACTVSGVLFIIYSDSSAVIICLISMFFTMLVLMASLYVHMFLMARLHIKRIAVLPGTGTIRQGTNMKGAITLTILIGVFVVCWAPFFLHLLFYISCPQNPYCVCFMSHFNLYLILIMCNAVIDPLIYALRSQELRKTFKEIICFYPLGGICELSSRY

Sequence of UniProt P33033 (P33033 whole entry): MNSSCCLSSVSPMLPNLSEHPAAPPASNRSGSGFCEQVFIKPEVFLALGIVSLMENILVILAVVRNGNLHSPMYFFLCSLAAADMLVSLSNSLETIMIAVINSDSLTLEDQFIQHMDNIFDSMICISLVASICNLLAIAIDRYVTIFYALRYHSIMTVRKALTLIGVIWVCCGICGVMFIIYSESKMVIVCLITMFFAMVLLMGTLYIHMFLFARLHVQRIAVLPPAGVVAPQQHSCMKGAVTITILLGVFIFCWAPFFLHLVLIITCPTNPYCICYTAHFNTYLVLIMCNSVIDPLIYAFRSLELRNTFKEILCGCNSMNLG
Sequence of UniProt P41149 (P41149 whole entry): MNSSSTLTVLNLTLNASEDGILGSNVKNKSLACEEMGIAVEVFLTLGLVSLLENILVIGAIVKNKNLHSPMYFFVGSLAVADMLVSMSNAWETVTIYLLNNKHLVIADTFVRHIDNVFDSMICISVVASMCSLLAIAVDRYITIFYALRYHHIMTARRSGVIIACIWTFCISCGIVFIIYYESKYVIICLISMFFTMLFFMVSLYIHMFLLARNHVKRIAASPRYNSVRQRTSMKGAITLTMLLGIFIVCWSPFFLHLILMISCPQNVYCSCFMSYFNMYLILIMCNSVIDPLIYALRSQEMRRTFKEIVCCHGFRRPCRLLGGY
Sequence of UniProt Q01727 (Q01727 whole entry): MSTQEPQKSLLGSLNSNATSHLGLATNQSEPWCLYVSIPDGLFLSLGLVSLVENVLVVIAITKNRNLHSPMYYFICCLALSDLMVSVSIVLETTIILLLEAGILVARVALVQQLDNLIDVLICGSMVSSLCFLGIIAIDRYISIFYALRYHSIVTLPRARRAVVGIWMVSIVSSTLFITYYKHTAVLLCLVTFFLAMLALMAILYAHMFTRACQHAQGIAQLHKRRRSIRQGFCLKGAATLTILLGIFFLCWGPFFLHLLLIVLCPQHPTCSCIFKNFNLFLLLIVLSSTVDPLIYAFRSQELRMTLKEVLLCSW

Molecule | agonist EC50, cAMP AlphaScreen, HEK293 cells stably expressing mMC1R [2] [nM] | agonist EC50, cAMP AlphaScreen, HEK293 cells stably expressing mMC3R [3] [nM] | agonist EC50, cAMP AlphaScreen, HEK293 cells stably expressing mMC5R [4] [nM] | further results
CC(=O)N[C@@H](CCCNC(=N)N)C(=O)N[C@@H](CCCNC(=N)N)C(=O)N[C@H](Cc1ccc(I)cc1)C(=O)N1Cc2ccccc2C[C@H]1C(N)=O [compound 1, Ac-Arg-Arg-(pI)DPhe-Tic-NH2] |  |  |  | food intake versus artificial cerebrospinal fluid vehicle (male mice): statistically significant increase in food intake
AGRP: naturally occurring MC3R/MC4R antagonist agouti-related protein (SSRRCVRLHESCLGQQVPCCDPCATCYCRFFNAFCYCRKLGTAMNPCSRT; ends and bridges not checked; cysteine pairing not given here; UniProt O00253 83-132, looked up) |  |  |  | food intake compared to saline injection [1]: dose-dependent increase in food intake
Ac-Arg-Arg-wsf-Tic-NH2 (peptide) |  |  | 350 | 
Ac-His-DPhe-Arg-Trp-NH2 |  |  |  | food intake in MC4R KO mice (MC4R KO mice): decrease in food intake
MTII |  |  |  | food intake in MC4R KO mice (MC4R KO mice): decrease in food intake

Second part, led by results:

agonist EC50, cAMP AlphaScreen, HEK293 cells stably expressing mMC1R [2] [nM] | agonist EC50, cAMP AlphaScreen, HEK293 cells stably expressing mMC3R [3] [nM] | agonist EC50, cAMP AlphaScreen, HEK293 cells stably expressing mMC5R [4] [nM] | Molecule | further results
0.18 | 10 | 7 | Ac-Arg-Arg-(pI)DPhe-Tic-NH2 (peptide) | 
380 | 570 | 240 | Ac-Arg-Arg-(pI)DPhe-Wrf-NH2 (peptide) | 
210 |  | 650 | Ac-Arg-Arg-(pI)DPhe-wsf-NH2 (peptide) | 
0.013 | 0.16 | 0.26 | NDP-MSH (peptide) | agonist EC50, cAMP AlphaScreen, HEK293 cells stably expressing mMC4R [5]: 0.68 nM
